Data taken from the DeepSol protein solubility set.

Assay: soluble on expression in E. coli; label from the status in PepcDB or PDB records

Row | Sequence | soluble on expression in E. coli
1 | KVVLISDVHVGSSQFLEDAWLDFLDFLKGESDSEEMREIASQVRYLVVAGDLVDGIGIYPDQEMELDILDVYEQYRKAADYFKEIPRHIRVIISPGNHDAVRQAEPQPALPERICADFPENVTFVGNPALVDLDGIRILIYHGRSIDDLVASVPGVSYHEPAGAVLEMLKRRHLAPTYGSRVSISPEKKDYFIIDPVPDIIHTGHVHTLGVQRYKNVLLVNSGTWQAQTEFQKRVNLVPVPARVPVVDLADFDVKILAFD | not soluble
2 | KVWWTLPYGPHEDEKNLTLEDWRDRVLDSTREAVAIRQRAAVDVGVLLSGGVDSSMLVGLLREVGVEDLSTFSIGFQDAGGERGDEFQYSDLIAKHYGTRHHQLRIQESEIIEQLPAAFRAMSEPMVSHDCIAFYLLSREVAKHCKVVQSGQGADELFAGYHWYPQVDGASDPVAAYRYAFVDRSYAEYADTVQPKWRTANDAAGDFVRDHFAQPGASAAVDKALRLDSTVMLVDDPVKRVDNMTMAWGLEARTPFLDYRLVELSARIPGKFKLPDGGKQVLKEAARLVIPSEVIDRKKGYFPVPGLKHLQGDTLNWVRELLTDPSQDRGLFNPTMVDKLLTNPEGQLTPLRGSKLWQLAALNLWLSEQ | not soluble
3 | KYDNKEFSSAVGHYGVGNGPYFMIPGYGPYTLREVTDTVDGMYLPLSYLNIWAGLGKWALEGLEKRALLVPQEAQLDSSPDPYVLTRDVYIQRQNFKAEIDTVEEVNPEEEALLDEYLDEF | not soluble
4 | LASIFVDVSSVEPGVQLTVKFLGKPIFIRRRTEADIELGRSVQLGQLVDTNARNANIDAGAEATDQNRTLDEAGEWLVMWGVCTHLGCVPIGGVSGDFGGWFCPCHGTHYDSAGRIRKGPAPENLPIPLAKFIDETTIQLG | soluble
5 | LDRHLQPLLLELATLTRAENSGVAPKVSDERKELDRLLAEQEGNRRALTAANVAVDDMELEIRRVQEDERKLRRREAEGKRQLAAEVDEEKRRDIKHDIYAAKSRIADLMSELQEAHNEIHALRNNRDLNQQRVSDTEARIDKARAAVDALGEDTTAADRHERIETLRLELPSDVVAQFDEQRDENEVGVASFNNRSCGGCFIILPPADISIIRRAPMNVLPQCPDCGSYLVRQG | not soluble
6 | LEAVAPERPRCAYCSAEASKRCSRCQNEWYCCRECQVKHWEKHGKTCVLAAQGDRAK | soluble
7 | LEQLSMNLLDGALRIEHFALPQTKVAYLHLSQINFEQILALLKYQQIELKGRANATFPFWIEGKPCYVCNGSMAQAVSSRLKIAPELMQAISQSNGYSERLLAYLLHDTRITDLTSKVNINSEGEMALQAKLNMQLNQQAQTKINFNYHHQENVFKLWRTLNAGTYVEQNFENSIYQKLDRTNE | not soluble
8 | LEQYVVVSNYKKQENSELSLQAGEVVDVIEKNESGWWFVSTSEEQGWVPATYLEAQN | soluble
9 | LFTPDKQRITESVAFKDLSSPELEQYIGDTQAEKLRADIELIDGVYQPFDKEEYLAGQLAPVFFGSALNNFGVQELLNCFVEIAPSPQPVAAVERKVDPHEEEFTGFVFKIHANMDPNHRSCIAFVKICSGRFERNTNYKHIRLGKQFRFSSPTAFMAQRKETVDEAYAGDIIGLPDTGNFQIGDTLTAGEELHFRGLPSFSPELFKYIENQDPMKAKQLAKGIDQLMGEGVAQLFTNQFNGRKIIGTVGQLQFEVIQYRLLHEYGAQCRWEPISLYKACWIDSDKPEALEAFKKRKAQYMAKDIAGRDVYLADSGYVLNMAQQDFPDIRFHFTSEF | not soluble
10 | LGQTTERYKSVIESMIEGIIIIDLEGKIIDHNKAATQIIGYEDLVLIGNDFSLGPGEAIREDETKFPFEEFPGIKTLRTGMPYKNVILGWIIPGKDTIWLSINSEPVKNENGEQVAVVCSYSDVT | not soluble
11 | LHPDKCRAPHATEAFKALGNAYAVLSDTDKRRQYDQYGAEAANSHTPTTRRRGGGHGAFFEHDYAHGFEAEFTPEEIFNMFFGGGFPTEQVRRRARYAQQQQYHHYEQQQSPYGPLLQLLPLIAIMVIGLLAQLMVGEPAYSLHQTSKFTIKRLTADLRVPYFVRTDFETSYRGRIRQVEQQVEDDYIQNLRMNCYKEQNLKETKLYRARWMRDEAMMRDAERTPLPSCIRLNEIYSH | not soluble
12 | LIIFVFGYYLAFNQNKYVSYNDETKQFVHTDTSKIMENLVNRQQGIYYFGFPTCPWCLELLPILDKELEKESMNAYAVNTRGDDYTENDDELLQKFYQKYTGDESLSVPFIVAINNKKEVQVHIGTVKNHDATKTKLKRRQKE | not soluble
13 | LKIKMPDDIFVKKELILKDVIKGQIGYMYLPSMSSKNGSINNDLKIIGDYINTLEKHKALIIDIRGNLGGSDRYWQGIVSKLIKNDVKINGYRIYRNNNEIVKKYTNARNIKLNPVENLPASVKENAPKEIIKDFNDFEDTSYTIKSTDDSKFKGNIYLLVDRKIYSSSESFAMFCKENKFATLVGETTGGDGGCIDPVLFNLKNSGLIVRMASCMYLNKNGICDEEFKTIPEFKVKDCKRTADFKDDNCIRKALELENINY | not soluble
14 | LKMTKVMVSEAGASVYSASELAAKEFPDLDVSIRGAVSIARRLQDPLAELVKIDPKSIGVGQYQHDVSQLKLARGLDAVVEDCVNAVGVDVNTASVALLARISGLNTTLAQNIVAHRDENGAFKTRAALKKVSRLGEKTFEQAAGFLRVMTGDNPLDSSAVHPEAYPLVQRIAAETDRDIRSLIGDASFLKRLDPKKFTDETF | not soluble
15 | LPELSLEELIRMHDHICFLKSLGYTDYQKHLKKSKVLIVGLGKLGANIAYNLCNVGVGSVILFDRTFISPTEISDIYTKDAIGMKKADYLRKKLTSIFPEIEVQNLPDTINISNYLNDSDFDIIIVNSEHFNIKLLSELNDLLYKISTPYMYAWIEGSRGYIGPLIYPPDTSCFNCYLTWRFFGTFMEDKIKAINNYGSSGYIFPLDKIIGALTVLEVCKAIGSLGTPLFNKIILVEVLPTLTIRYIPILKDPKCNVCEG | not soluble
16 | LPVTDNHIHVDDKHGYGAEKVAKTFYNAGGKVMIVLNKPTFDGNLTASMDILVRDVEIINKNTPVKAFGLVGVHPAELTYLMKFMSLEEAKQRIVDALNYAKKLVEEYDFIVGIGEVGRPHYPVSEDVWKASNEILKYCMELAKDIGCAIQIHAESSTEEQFKEFSEMAKEVGLNPEKVVKHHCGNMVLEGERYGIFPSILASRVNEDVVKKSLRFVMETDYIDDLKRPGVALGIKTVPRVTRRLIEKGVLDEEGVYKIHKENIERIYDM | not soluble
17 | LPYPIPIALTDALDRSVSAELVAVLVAVTQGEPRVLTTEDARALPAGPFELAHRSLQAGLRAWVETQTHHPLGYVEQLYTFADSDRSNEAGARVISVSYLGLTREAGATGVAQVGWQHWYRYFPWEDWRAGRPAIIADEIAPRLLAWAGAGADAAARAQRRQRVALTFGLDGAGWNEDMVLQRYELLFEAGLVPESRHPDASGLPVAGQSMRHDHRRILATGIAR | not soluble
18 | LQASCSDDQEHRLGSLDFYTGVFALEKSRIAEISNRATLELQKMATSGEPMWLRSVETGREILNYDEYLKEFPQAQASSFPGRKTIEASRDAGIVFMDAHKLAQSFMDVGQWKETFACLISKAATVDVIRQGEGPSRIDGAIQLMFGEMQLLTPVVPTREVYFVRSCRQLSPEKWAIVDVSVSVEDSNTEKEASLLKCRKLPSGCIIEDTSNGHSKVTWVEHLDVSASTVQPLFRSLVNTGLAFGARHWVATLQLHCERLVFFMATNVPTKDSLGVTTLAGRKSVLKMAQRMTQSFYRAIAASSYHQWTKITTKTGQDMRVSSRKNV | soluble
19 | LRKQVELLFNTRYAKAIGISEPVKVPYSKFLMHPEELFVVGLPEGISLRRPNCFGIAKLRKILEASNSIQFVIKRPELLTEGVKEP | soluble
20 | LSDDRYFIFFNQPKTPEESIQLLGAQAGDTESFRVTLDRIPPQIQKLSFTATLDGAGQMSQVAPGYLRIVAGGEEVARYSFTGSEFSTERAVMLGDFYLKDVWRFAAVGQGFDGGLDALLKNFGGEVAEEEPAVPAQTQSGAAPSFAPPAFGAPAAPAPAPAPAPQPAQGFTPPPGPTPPPAPAPAPSVHAAPTIVGPLHTPPGGTVPPPGPAPYAQ | not soluble
21 | LSECKTGNGKNYRGTMSKTKNGITCQKWSSTSPHRPRFSPATHPSEGLEENYCRNPDNDPQGPWCYTTDPEKRYDYCDILECEEECMH | soluble
22 | LSFSSAVKNELCRVETDRSSSLFELAAAARISGLIKVVNANEINLRLVTENAAFARRIFSQIKDLYGINAEISIRRSPKLKKNIVYIIVLTSSKGLMRILEDINIKVSEKVEYIPYARCMRKKEYRKAYLRGAFLASGSMSDPEKTYHLEITCHNMALATEVSDLMDSFKLHSKVTKRKGNYVVYLKEGENIVDFLNIIGAHSALLELENIRILKEMRNNVNRIVNCETANLQKTVDASVRQVENINYIKEHLGFDKLPENLREIAKMRLAYSDATLKELGEMLNPPLGKSGVNHRLRKLDKIAESLRNMKGEL | soluble
23 | LSSPQNILVCVTQQITCERLILKAAELRNELKGELFVIHVAKNEWNFLDNIKEGEALEYLFKISKSVGANLSVLKSDDIVQTIVNFAKENKITHIVMGESPNDHKENNFYNELKRLLSNVEILVIPQAGI | not soluble
24 | LTCESVRSTDSPHFAMLDALYARAFPCHEQRESEAKRQALSHPRYALEAWFDEGVFVGLSGCWQFAGYGYIEHLAIDDTLRSRGYGKQLLAQILTRAPLTILEIDPLTTAIAHKRLRFYQSMGFHANPWAHHHPSYHQGIADHELLVLSYPQP | not soluble
25 | LTDDPGSGFTTVWNAVVSELNGDPKVDDGPSSDANLSAPLTPQQRAWLNLVQPLTIVEGFALLSVPSSFVQNEIERHLRAPITDALSRRLGHQIQLGVRIAPPATDEADDTTVPPSENPATTSPDTTTDNDEIDDSAAARGDNQHSWPSYFTERPHNTDSATAGVTSLNRRYTFDTFVIGASNRFAHAAALAIAEAPARAYNPLFIWGESGLGKTHLLHAAGNYAQRLFPGMRVKYVSTEEFTNDFINSLRDDRKVAFKRSYRDVDVLLVDDIQFIEGKEGIQEEFFHTFNTLHNANKQIVISSDRPPKQLATLEDRLRTRFEWGLITDVQPPELETRIAILRKKAQMERLAVPDDVLELIASSIERNIRELEGALIRVTAFASLNKTPIDKALAEIVLRDLIADANTMQISAATIMAATAEYFDTTVEELRGPGKTRALAQSRQIAMYLCRELTDLSLPKIGQAFGRDHTTVMYAQRKILSEMAERREVFDHVKELTTRIRQRSKR | soluble
26 | LVHLSVHNYAIVEHLDLELDRGMSVITGETGAGKSIMLDALGLTLGDRADSGVVRPGADKADILATFDLGDIPEAEAWLKERDLDNDGPCILRRVITAEGRSRSYINGSPCPQGDLKALGELLIDIHSQHEHQSLLKTDTHRRLLDEYAGATDLARQVHLAAQRWRQTRQELERL | not soluble
27 | LYLKRATHRIADGIGVVKASKLMGGSIRERVTGIDVMDNFLEYANQHKERIFLYGAKQEVVEAAAKNIQRQYPGIVISGILHGYTKKKQQEIVEQINKAEPRFVFVALGSPKQEIFLEQTIDHLTANVFLDVGGTFDVLAGSVKRAPEFYINHNLEWLYRCLTMKRYDRLMQIPKYIYLTIKYRNNKSRGQ | not soluble
